# In patent US20090075898A1, “Complement C3A Derived Peptides and Uses Thereof” (Yeda Research and Development Co. Ltd. at the Weizmann …, priority 2005, published 2009):
# B1: C5a: complement activation product C5a, anaphylatoxic peptide, isolated; used as control (protein)
# chain: TLQKKIEEIAAKYKHSVVKKCCYDGACVNNDETCEQRAARISLGPRCIKAFTECCVVASQLRANISHKDMQLGR
# Experiments:
# [1] = test system: bone marrow derived mast cells (BMMC); test: Secretory response (β-hexosaminidase release) of bone marrow derived mast cells; format: cell-based, mouse
# Experimental: Cells. Bone marrow derived mast cells (BMMC) were prepared from Balb/c mice as described by Nagao et al. (Science 212: 333-335, 1981). After 3 weeks, an approximately 95% pure mast cell population was obtained, showing high expression of FcεRI and stem cell factor receptor (c-kit), as measured by flow cytometry.
# (§1) Secretory response of mast cells.
# Similar experiments were carried out using bone-marrow derived mast cells (BMMC). […] The control peptide of the sequence DVSNYITR had no effect on either system.
# [2] = test system: rat peritoneal mast cells (RPMC); test: Secretory response (β-hexosaminidase release) of rat peritoneal mast cells; format: cell-based; settings: non-sensitized cells, no antigen
# From the text: Rat peritoneal mast cells (RPMC) were isolated as previously described (Kim et al. J. Immunol. 162:4960-4965, […]). Mast cell preparations were ca. 95% pure, as evaluated by flow cytometric monitoring of FcεRI surface expression. Compound 48/80, a specific activator of serosal type mast cells elicited about 50% release of the total β-hexosaminidase content of the isolated rat peritoneal mast cells.
# as §1
# While mucosal type mast cells are non-responsive to peptidergic stimuli, the serosal type ones have been known for a long time to be stimulated by cationic secretagogues. The anaphylatoxic peptides C3a and C5a initiate the cells' secretory response by binding to their respective receptors expressed by serosal type mast cells. To investigate the effect of the peptides on this mast cell-type, RPMC were used. As expected, these cells did respond to both C5a and C3a (Table 2). However, degranulation was inhibited when peptides C3a7 or C3a9 were added to the IgE-sensitized RPMC and stimulated, 5 min later with a suboptimal antigen dose (Table 2).
# RBL-2H3 cells = settings: Erdei et al. 1995, 1999; cited from earlier work
# rat FcεRI β chain = test: Surface plasmon resonance, immobilized extracellular loop peptides of rat FcεRI β chain; settings: SPR
# human FcεRI β chain = test: Surface plasmon resonance, immobilized extracellular loop peptides of human FcεRI β chain; settings: SPR
molecule,measurement,setting,value
B1,Inhibition of IgE-mediated secretory response of BMMC,[1],had no effect
same,Stimulation of secretory response of RPMC by the peptide itself,[2],did respond
same,Inhibition of IgE-mediated degranulation of RBL-2H3 cells (literature),RBL-2H3 cells,has no effect
same,Reaction with any tested sequences (1st and 2nd loop) of rat FcεRI β-chain,rat FcεRI β chain,did not react
same,Reaction with any tested sequences (1st and 2nd loop) of human FcεRI β-chain,human FcεRI β chain,did not react
